# Data published in US20230374132A1 (Innovent, published 2023).
# Changes are numbered by the printed parent chain. Names may count otherwise.
# B1: hzsp34.115 (antibody, human IgG1, lambda, L234A L235A, V domains shown)
# VH: EVQLVESGGGLVQPGGSLKLSCAASGFTFNTYAMNWVRQASGKGLEWVGRIRSKYNNYATYYADSVKDRFTISRDDSKSTLYLQMNSLKTEDTAVYYCARHGNFGQSYVSWFAYWGQGTTVTVSS
# VL: QAVVTQEPSLTVSPGGTVTLTCRSSTGAVTTSNYANWVQQKPGQAPRGLIGGTNSRAPGVPARFSGSLLGDKAALTLLGAQPEDEAEYYCALWYSNLWVFGQGTKLTVLG
# notes: CDR mutant of hzsp34.24; IgG1 L234A L235A, lambda
# B2: hzsp34.111 (antibody, human IgG1, lambda, L234A L235A, V domains shown)
# VH: B1 VH
# VL: B1 VL with T30G, T31G, S55K
# notes: as for B1
# B3: hzsp34.112 (antibody, human IgG1, lambda, L234A L235A, V domains shown)
# VH: B1 VH
# VL: B1 VL with S32R, N33G, S55K
# notes: as for B1
# B4: hzsp34.113 (antibody, human IgG1, lambda, L234A L235A, V domains shown)
# VH: B1 VH
# VL: B1 VL with S55K, W93A, Y94A
# notes: as for B1
# B5: hzsp34.114 (antibody, human IgG1, lambda, L234A L235A, V domains shown)
# VH: B1 VH
# VL: B1 VL with S55K, S95R, N96G
# notes: as for B1
# B6: hzsp34.8 (antibody, human IgG1, lambda, L234A L235A, V domains shown)
# VH: B1 VH with Q106N
# VL: B1 VL with V38F, G48T, G51Y, S55K, G59W, V60T, D71G
# notes: IgG1 L234A L235A, lambda
# B7: hzsp34.13 (antibody, human IgG1, lambda, L234A L235A, V domains shown)
# VH: B1 VH with Q106N
# VL: B1 VL with G48T, S55K, D71G
# notes: IgG1 L234A L235A, lambda
# B8: hzsp34.22 (antibody, human IgG1, lambda, L234A L235A, V domains shown)
# VH: B1 VH with S79N, Q106N
# VL: B1 VL with S55K
# notes: IgG1 L234A L235A, lambda
# B9: hzsp34.17 (antibody, human IgG1, lambda, L234A L235A, V domains shown)
# VH: B1 VH with S79N, Q106N
# VL: B1 VL with S55K, D71G
# notes: IgG1 L234A L235A, lambda
# B10: hzsp34.34 (antibody, human IgG1, kappa, L234A L235A, V domains shown)
# VH: B1 VH
# VL: EIVMTQSPATLSVSPGERATLSCRSSTGAVTTSNYANWVQQKPGQAPRLLIGGTNKRAPGVPARFSGSGSGTEFTLTISSLQSEDFAVYYCALWYSNLWVFGQGTKLTVLR
# notes: IgG1 L234A L235A, kappa
# B11: hzsp34.20 (antibody, human IgG1, lambda, L234A L235A, V domains shown)
# VH: B1 VH with G49A
# VL: B1 VL with S55K, D71G
# notes: IgG1 L234A L235A, lambda
# B12: hzsp34.23 (antibody, human IgG1, lambda, L234A L235A, V domains shown)
# VH: B1 VH with Q106N
# VL: B1 VL with S55K
# notes: IgG1 L234A L235A, lambda
# B13: hzsp34.35 (antibody, human IgG1, kappa, L234A L235A, V domains shown)
# VH: B1 VH with G49A
# VL: B10 VL
# notes: IgG1 L234A L235A, kappa
# B14: hzsp34.43 (antibody, human IgG1, kappa, L234A L235A, V domains shown)
# VH: B1 VH with Q106N
# VL: B10 VL with L49G, T72D
# notes: IgG1 L234A L235A, kappa
# B15: hzsp34.14 (antibody, human IgG1, lambda, L234A L235A, V domains shown)
# VH: B1 VH
# VL: B1 VL with G48T, S55K, D71G
# notes: IgG1 L234A L235A, lambda
# B16: hzsp34.37 (antibody, human IgG1, kappa, L234A L235A, V domains shown)
# VH: B1 VH with S79N, Q106N
# VL: B10 VL with L49G
# notes: IgG1 L234A L235A, kappa
# B17: hzsp34.15 (antibody, human IgG1, lambda, L234A L235A, V domains shown)
# VH: B1 VH with G49A
# VL: B1 VL with G48T, S55K, D71G
# notes: IgG1 L234A L235A, lambda
# B18: hzsp34.18 (antibody, human IgG1, lambda, L234A L235A, V domains shown)
# VH: B1 VH with Q106N
# VL: B1 VL with S55K, D71G
# notes: IgG1 L234A L235A, lambda
# B19: hzsp34.29 (antibody, human IgG1, kappa, L234A L235A, V domains shown)
# VH: B1 VH
# VL: B10 VL with V39Y, G52Y, V61I
# notes: IgG1 L234A L235A, kappa
# B20: hzsp34.44 (antibody, human IgG1, kappa, L234A L235A, V domains shown)
# VH: B1 VH
# VL: B10 VL with L49G, T72D
# notes: IgG1 L234A L235A, kappa
# B21: hzsp34.32 (antibody, human IgG1, kappa, L234A L235A, V domains shown)
# VH: B1 VH with S79N, Q106N
# VL: B10 VL
# notes: IgG1 L234A L235A, kappa
# B22: hzsp34.19 (antibody, human IgG1, lambda, L234A L235A, V domains shown)
# VH: B1 VH
# VL: B1 VL with S55K, D71G
# notes: IgG1 L234A L235A, lambda
# B23: hzsp34.27 (antibody, human IgG1, kappa, L234A L235A, V domains shown)
# VH: B1 VH with S79N, Q106N
# VL: B10 VL with V39Y, G52Y, V61I
# notes: IgG1 L234A L235A, kappa
# B24: hzsp34.10 (antibody, human IgG1, lambda, L234A L235A, V domains shown)
# VH: B1 VH with G49A
# VL: B1 VL with V38F, G48T, G51Y, S55K, G59W, V60T, D71G
# notes: IgG1 L234A L235A, lambda
# B25: hzsp34.30 (antibody, human IgG1, kappa, L234A L235A, V domains shown)
# VH: B1 VH with G49A
# VL: B10 VL with V39Y, G52Y, V61I
# notes: IgG1 L234A L235A, kappa
# B26: hzsp34.9 (antibody, human IgG1, lambda, L234A L235A, V domains shown)
# VH: B1 VH
# VL: B1 VL with V38F, G48T, G51Y, S55K, G59W, V60T, D71G
# notes: IgG1 L234A L235A, lambda
# B27: hzsp34.39 (antibody, human IgG1, kappa, L234A L235A, V domains shown)
# VH: B1 VH
# VL: B10 VL with L49G
# notes: IgG1 L234A L235A, kappa
# B28: hzsp34.25 (antibody, human IgG1, lambda, L234A L235A, V domains shown)
# VH: B1 VH with G49A
# VL: B1 VL with S55K
# notes: IgG1 L234A L235A, lambda
# Target: T1, human CD3E&G complex (Sino Biological Inc., CT041-H0305H) (human, UniProt P07766 23-126; P09693 23-116)
# T1 construct: bought heterodimer; also called human CD3E&G antigen
# Assay: BLI, antibody on sensor
# T1 sequence (P07766 23-126, chain 1 of 2): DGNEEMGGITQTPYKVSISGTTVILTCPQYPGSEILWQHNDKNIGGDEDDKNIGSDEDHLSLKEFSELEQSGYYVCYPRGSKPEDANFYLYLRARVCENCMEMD
# T1 sequence (P09693 23-116, chain 2 of 2): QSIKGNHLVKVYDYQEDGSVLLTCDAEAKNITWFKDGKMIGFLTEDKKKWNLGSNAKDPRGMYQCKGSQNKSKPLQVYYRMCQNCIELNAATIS
Kd [nM],koff [s⁻¹],kon [M⁻¹ s⁻¹],Binder
7.7,0.00184,238000,B1
9.5,0.00191,201000,B2
6.6,0.00155,235000,B3
3.71,0.000811,219000,B4
6.69,0.00134,200000,B5

# Target: T2, human CD3 E&D complex protein (Sino Biological Inc., CT026H0323H) (human, UniProt P07766 23-126; P04234 22-105)
# T2 construct: bought heterodimer; also called human CD3 protein (CT026H0323H)
# Assay: BLI, antibody on sensor
# T2 sequence (P07766 23-126, chain 1 of 2): as the sequence (P07766 23-126, chain 1 of 2) above
# T2 sequence (P04234 22-105, chain 2 of 2): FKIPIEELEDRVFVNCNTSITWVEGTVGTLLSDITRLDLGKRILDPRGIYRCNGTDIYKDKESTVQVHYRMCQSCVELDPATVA
Kd [nM],koff [s⁻¹],kon [M⁻¹ s⁻¹],Binder
1.26,0.000331,264000,B1
1.94,0.000454,235000,B2
0.722,0.000204,282000,B3
1.02,0.0002,196000,B4
1.08,0.000282,262000,B5

# Target: T3, cynomolgus monkey CD3 E&D complex protein (Sino Biological Inc., CT032-00323H) (cynomolgus monkey, UniProt Q95LI5 22-117; Q95LI8 22-105)
# T3 construct: bought heterodimer
# Assay: BLI, antibody on sensor
# Experimental: (§1) 100 μl SD buffer, various antibodies, human CD3 E&D complex protein (Sino Biological Inc., CT026H0323H), and cynomolgus monkey CD3 E&D complex protein (Sino Biological Inc., CT032-00323H) were added into 96-well black polystyrene semi-quantitative micro-well plate (Greiner, 675076) respectively. Fortebio Octet Red 96 was used for detection, and the sensor position was selected according to the sample position. The setting parameters of the instrument are as follows: operation steps: Baseline, Loading-1 nm, Baseline, Association and Dissociation; the operation time of each step depends on the speed of sample association and dissociation. The rotational speed is 1000 rpm and the temperature is 30° C. ForteBio Octet analysis software was used to analyze KD value.
# T3 sequence (Q95LI5 22-117, chain 1 of 2): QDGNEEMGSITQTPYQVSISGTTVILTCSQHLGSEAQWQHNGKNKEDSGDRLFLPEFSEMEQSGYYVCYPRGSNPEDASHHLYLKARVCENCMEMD
# T3 sequence (Q95LI8 22-105, chain 2 of 2): as the sequence (P04234 22-105, chain 2 of 2) above, with I5V, N15K, I20V, S32T, D33N, I34N, T64A, S74N, V83L counted along it
binding result,Kd [nM],koff [s⁻¹],kon [M⁻¹ s⁻¹],Binder
no binding,–,–,–,B6
–,1.75,0.00164,937000,B7
–,0.585,0.000886,1.52e+06,B8
–,0.514,0.000915,1.78e+06,B9
no binding,–,–,–,B10
–,0.756,0.0011,1.46e+06,B11
–,0.605,0.000791,1.31e+06,B12
no binding,–,–,–,B13
–,7.92,0.00201,253000,B14
–,0.195,9.49e-05,488000,B15
–,6.24,0.002,321000,B16
–,1.75,0.00115,658000,B17
–,0.67,0.00088,1.31e+06,B18
no binding,–,–,–,B19
–,12.1,0.00293,241000,B20
no binding,–,–,–,B21
–,0.602,0.00099,1.64e+06,B22
no binding,–,–,–,B23
no binding,–,–,–,B24
no binding,–,–,–,B25
no binding,–,–,–,B26
–,7.1,0.00203,286000,B27
–,0.857,0.000913,1.07e+06,B28

# Target: T2, human CD3 E&D complex protein (Sino …)
# Assay: BLI, antibody on sensor
# Remark: another data set of the same source
# Experimental: as §1
binding result,Kd [nM],koff [s⁻¹],kon [M⁻¹ s⁻¹],Binder
no binding,–,–,–,B6
–,4.33,0.00466,1.08e+06,B7
–,0.605,0.00214,3.54e+06,B8
–,0.51,0.00206,4.04e+06,B9
no binding,–,–,–,B10
–,0.847,0.00275,3.25e+06,B11
–,0.554,0.00198,3.57e+06,B12
no binding,–,–,–,B13
–,12.6,0.00453,359000,B14
–,2.41,0.00159,661000,B15
–,9.16,0.00399,436000,B16
–,3.13,0.00202,644000,B17
–,0.629,0.00208,3.31e+06,B18
no binding,–,–,–,B19
–,16.5,0.00581,353000,B20
no binding,–,–,–,B21
–,0.613,0.00233,3.8e+06,B22
no binding,–,–,–,B23
no binding,–,–,–,B24
no binding,–,–,–,B25
no binding,–,–,–,B26
–,7.85,0.00354,451000,B27
–,1.17,0.00273,2.35e+06,B28
